From patent US20220090139A1 come the findings set out here.

The target of the experiment is integrin molecules on human cells (human). The experiment in a line: cell-based or functional assay.

B1: RGD-Hoc, P18056 1-376 (protein)
chain: CDCRGDCFCSAMTFTVDITPKTPTGVIDETKQFTATPSGQTGGGTITYAWSVDNVPQDGAEATFSYVLKGPAGQKTIKVVATNTLSEGGPETAEATTTITVKNKTQTTTLAVTPASPAAGVIGTPVQFTAALASQPDGASATYQWYVDDSQVGGETNSTFSYTPTTSGVKRIKCVAQVTATDYDALSVTSNEVSLTVNKKTMNPQVTLTPPSINVQQDASATFTANVTGAPEEAQITYSWKKDSSPVEGSTNVYTVDTSSVGSQTIEVTATVTAADYNPVTVTKTGNVTVTAKVAPEPEGELPYVHPLPHRSSAYIWCGWWVMDEIQKMTEEGKDWKTDDPDSKYYLHRYTLQKMMKDYPEVDVQESRNGYIIHKTALETGIIYTYPKLAAALEHHHHHH
Take B1: the luciferase activity stood at 5 fold.
